# Measurements as given in the DeepSol protein solubility set.
# Experiment: soluble on expression in E. coli; label from the status in PepcDB or PDB records
row,Sequence,soluble on expression in E. coli
1,MGHHHHHHSHMTDRQDIQKSMAAFKNLSAQCQEVRKRKELELQILTEAIRNWEGDDIKTLGNVTYMSQVLIQCAGSEEKNERYLLLFPNVLLMLSASPRMSGFIYQGKLPTTGMTITKLEDSENHRNAFEISGSMIERILVSCNNQQDLQEWVEHLQKQTKVTSVG,soluble
2,MGHHHHHHSHMTGRLDELEKAITTQNCNTKCVTIPSTCSEIWGLSTPNTIDQWDTTGLYSFSEQTRSLDGRLQVSHRKGLPHVIYCRLWRWPDLHSHHELKAIENCEYAFNLKKDEVCVNPYHYQRVETPVLPPVLVPRHTEILTELPPLDDYTHSIPE,soluble
3,MGHHHHHHSHMTNQNVLLNISGVKFVLRIPNAVNLSLINREYEAFNNAQAYRAGLNVETPVLDAKSGVKLTRYLENSNTLSQIQLNEQSCLSQVVNNLYRLHNSEFVFRNVFSVFDEFRQYFSLLENKSAFYQADSRMDKLSAVFWQFEEINKEVILRPCHNDLVPENMLLQDDRLFFIDWEYSGLNDPLFDIATIIEEAHLSKEAADFLLETYCNQTNKYHKTEFQIAHKRLKIHRFCQNVLWFLWTKVKEEHGENFGDYALKRLDAAFKLLEELP,soluble
4,MGHHHHHHSHMVLLHVKRGDESQFLLQAPGSTELEELTVQVARVYNGRLKVQRLCSEMEELAEHGIFLPPNMQGLTDDQIEELKLKDEWGEKCVPSGGAVFKKDDIGRRNGQETSGSRCLCYHGDGERCLGPASRRGDDCLPHGVATV,not soluble
5,MGHHHHHHSHMWKDFIDHISSLLHSVEVEVSYFAAGIIAHLISRGEQAWTLSRSQRNSLLDDLHSAILKWPTPECEMVAYRSFNPFFPLLGCFTTPGVQLWAVCAMQHVCSKNPSRYCSMLIEEGGLQHLYNIKDHEHTDPHVQQIAVAILDSLEKHIVRHGRPPPCKKQPQARLN,not soluble
6,MGHHHHHHSHMYAEERRRQIASLTAVEGRVNVTELAGRFDVTAETIRRDLAVLDREGIVHRVHGGAVATQSFQTTELSLDTRFRSASSAKYSIAKAAMQFLPAEHGGLFLDAGTTVTALADLISEHPSSKQWSIVTNCLPIALNLANAGLDDVQLLGGSVRAITQAVVGDTALRTLALMRADVVFIGTNALTLDHGLSTADSQEAAMKSAMITNAHKVVVLCDSTKMGTDYLVSFGAISDIDVVVTDAGAPASFVEQLRERDVEVVIAE,soluble
7,MGHHHHHHSHPAPAQLVQKAHELMWYVLVKDQKKMIIWFPDMVKDVIGSYKKWCRSILRRTSLILARVFGLHLRLTSLHTMEFALVKALEPEELDRVALSNRMPMTGLLLMILSLIYVKGRGARESAVWNVLRILGLRPWKKHSTFGDVRKLITEEFVQMNYLKYQRVPYVEPPEYEFFWGSRASREITKMQIMEFLARVFKKDPQA,not soluble
8,MGHHHHHHSHPRRLAWCSIDWEQVCLLQRLGAGGFGSVYKATYRGVPVAIKQVNKCTKNRLASRRSFWAELNVARLRHDNIVRVVAASTRTPAGSNSLGTIIMEFGGNVTLHQVIYGAAGHPEGDAGEPHCRTGGQLSLGKCLKYSLDVVNGLLFLHSQSIVHLDLKPANILISEQDVCKISDFGCSEKLEDLLCFQTPSYPLGGTYTHRAPELLKGEGVTPKADIYSFAITLWQMTTKQAPYSGERQHILYAVVAYDLRPSLSAAVFEDSLPGQRLGDVIQRCWRPSAAQRP,not soluble
9,MGHHHHHHSHVAEGQEPAEFWDLLGGKTPYANDKRLQQEILDVQSRLFECSNKTGQFVVTEITDFTQDDLNPTDVMLLDTWDQVFLWIGAEANATEKESALATAQQYLHTHPSGRDPDTPILIIKQGFEPPIFTGWFLAWDPNIWSAGKTYEQLKEELGDAAAIMRITADMKNATLSLNSNDSEPKYYPIAVLLKNQNQELPEDV,soluble
10,MGHHHHHHSHVVAILGMGWGAGTGLEMPSAASRGASLLNMQSLGLWTWDCLQGHWAPLIHLNSGPPSGAMERSPTWGEAAELWGSHILLPFRIRHKQTLFASLK,not soluble
11,MGHNMMTTQKWYEHITNVIIGNTANFNSGCPESIDYVDEKKGVPLAAMKYILMYTEAAASHAYLFEHDLKKFKQYAYVAGKLGILQSVDDEDPEPFFFPCDMLNIQDPMFLMLMSDSPQLREFLVRNIDNIANDTEAFVNRYDLNRHMIYNTLLMVEGKQLDRLKQRSEKVLAHPTPSKWLQKRLYDYRFFLAFAEQDAEAMKAALEPLFDKKTARMAAKETLSYFDFYLQPQIVTYAKIASMHGFDLGIDHEIAPRDLTVYDPLPADEYQDIFDFMKQYDLSYPYEYLQDWIDYYTFKTDKLVFGNAKRE,not soluble
12,MGIHRLWKRFTIDCSGVRRGQTVLDLAGGTGDLTAKFSRLVGETGKVVLADINESMLKMGREKLRNIGVIGNVEYVQANAEALPFPDNTFDCITISFGLRNVTDKDKALRSMYRVLKPGGRLLVLEFSKPIIEPLSKAYDAYSFHVLPRIGSLVANDADSYRYLAESIRMHPDQDTLKAMMQDAGFESVDYYNLTAGVVALHRGYKLEHHHHHH,not soluble
13,MGIRPSADEQDQCFMTRITIVTDAWHPQVNGVVRSIENTNTELARLGVDVRMVTPQSFYSIPCPTYPEIRLSVAGYRRVAVEIEKSQPSFVHIATEGPLGFMARRWCVKNHMRFSTSYHTRFPEYVAARFPVPESWLYAFVRWFHNGGNTCMVATPSLETELEARGVRNLKRWSRGIDAELFHPRTKTKLPFDLPRPIFMTVGRVAVEKNLPEFLDLDLPGSKIVIGDGPARYELQEKYPDVLFTGIKTGEELADAYAQADVFVFPSKTDTFGNTILEALASGVPVAAFPVTGPIDILGGNPAAGALDNNLRDACLAALHCSPQAALALSKSYSWEKASRQFLDNVIHAAGKSLPLLSRSRLAAAALEHHHHHH,not soluble
14,MGKEKVHINIVVIGHVDSGKSTTTGHLIYKCGGIDKRTIEKFEKEAQEMGKGSFKYAWVLDKLKAERERGITIDIALWKFETAKYYITIIDAPGHRDFIKNMITGTSQADCAVLVVACNKMDSTEPPFSEARFTEITNEVSGFIKKIGYNPKAVPFVPISGFNGDNMLEVSSNMPWFKGWAVERKEGNASGKTLLEALDSIIPPQRPTDRPLRLPLQDVYKIGGIGTVPVGRVETGIIKPGMVVTFAPQNVTTEVKSVEMHHESLPEAVPGDNVGFNVKNVSVKDIRRGSVCSDSKQDPAKEARTFHAQVIIMNHPGQISNGYTPVLDCHTAHIACKFNELKEKVDRRTGKKVEDFPKFLKSGDAGIVELIPTKPLCVESFTDYAPLGRFAVRDMRQTVAVGVIKSVEKSDGSSGKVTKSAQKAAPKKK,not soluble
15,MGKKELKRGLVVDREAQMIGVYLFEDGKTYRGIPRGKVLKKTKIYAGDYVWGEVVDPNTFAIEEVEERKNLLIRPKVANVDRVIIVETLKMPEFNNYLLDNMLVVYEYFKVEPVIVFNKIDLLNEEEKKELERWISIYRDAGYDVLKVSAKTGEGIDELVDYLEGFICILAGPSGVGKSSILSRLTGEELRTQEVSEKTERGRHTTTGVRLIPFGKGSFVGDTPGFSKVEATMFVKPREVRNYFREFLRYQCKYPDCTHTNEPGCAVKEAVKNGEISCERYKSYLKIIKVYLEEIKELCRED,soluble
16,MGKKRKHQDSDSEQSGKRVKKVEEARNGVADMTIDESSDFQVFLIKKPIGVSLEDLEALKWSNDEEVLTKTKLKTESGVFRAIVAPKSKKERMVHIPAFREREEADSKNIKAQSFVTGAITILPQEVKPKVLGGFIYEEGEEPVEGSSEVHPGLKKIKKTAILDLESRQQRNKAYGTTTEGDGKPRKLANIIEKMN,soluble
17,MGKMIPYVIDLDAIFDLSSIEIYRLLTSSLSNVRYYPPKDLLKTVINDFDISKFKPFPDSQYLEELNYRARIYVITNLPKIEAKLLLVRYNLDAFIQDVISPEDINRYFPSKEVLVLISRKTNSPLGSITFITPHIDYAILTSNLGMRTILIRNSISLPRDIRVEIRKSLVELAEITAQHKIDSEAGDSALRCQ,not soluble
18,MGKNEILWGIAPIGWRNDDMPEIGAGNTLQHLLSDIVVARFQGTEVGGFFPEPAILNKELKLRNLRIAGKWFSSFILRDGLGEAAKTFTLHCEYLQQVNADVAVVSEQTYSVQSLEKNVFTEKPHFTDDEWERLCEGLNHLGEIAAQHGLKLVYHHHLGTGVQTAEEVDRLMAGTDPAHVHLLYDTGHAYISDGDYMGMLEKHIGRIKHVHFKDARLNVMEQCRLEGQSFRQSFLKGMFTVPGDGCIDFREVYQLLLKHSYSGWIVIEAEQDPDVANPLEYALIARNYIDQQLLDLALEHHHHHH,not soluble
